The target in assay [1] is T1, recombinant biotinylated monomeric Fc fusion of human Folate Receptor 1 (huFolR1 ECD-AcTev-Fcknob-Avi tag … (human, UniProt P0DOX5 223-449 = IgG part, biotin on the C-terminal Avi tag)).
T1 construct: also called huFolR1-Fc; human FolR1-Fc
The assay can be described thus: SPR ProteOn, Fab analyte on immobilized antigen-Fc. The protocol:
(§1) Immobilization of antigens (ligand): Recombinant antigens were diluted with PBST (10 mM phosphate, 150 mM sodium chloride pH 7.4, 0.005% Tween 20) to 10 μg/ml, then injected at 30 μl/minute in vertical orientation. Injection of analytes: For ‘one-shot kinetics’ measurements, injection direction was changed to horizontal orientation, two-fold dilution series of purified Fab (varying concentration ranges) were injected simultaneously along separate channels 1-5, with association times of 200 s, and dissociation times of 600 s. Buffer (PBST) was injected along the sixth channel to provide an “in-line” blank for referencing. Association rate constants (kₒₙ) and dissociation rate constants (koff) were calculated using a simple one-to-one Langmuir binding model in ProteOn Manager v3.1 software by simultaneously fitting the association and dissociation sensorgrams. The equilibrium dissociation constant (KD) was calculated as the ratio koff/kₒₙ.

Assay [2] addresses T2, recombinant biotinylated monomeric Fc fusion of cynomolgus Folate Receptor 1 (cy FolR1 ECD-AcTev-Fcknob-Avi … (cynomolgus, UniProt P0DOX5 223-449 = IgG part, biotin on the C-terminal Avi tag)).
T2 construct: also called cyFolR1-Fc; cyno FolR1
The experiment in a line: SPR ProteOn, Fab analyte on immobilized antigen-Fc. The protocol:
as §1

The target of assay [3] is T3, recombinant biotinylated monomeric Fc fusion of human Folate Receptor 2 (hu FolR2 ECD-AcTev-Fcknob-Avi tag … (human, UniProt P0DOX5 223-449 = IgG part, biotin on the C-terminal Avi tag)).
T3 construct: also called FolR2-Fc
The assay can be described thus: SPR ProteOn, Fab analyte on immobilized antigen-Fc. The protocol: as §1

Assay [4] concerns the target T4, recombinant biotinylated monomeric Fc fusion of human Folate Receptor 3 (hu FolR3 ECD-AcTev-Fcknob-Avi tag … (human, UniProt P0DOX5 223-449 = IgG part, biotin on the C-terminal Avi tag)).
T4 construct: also called FolR3-Fc
The assay can be described thus: SPR ProteOn, Fab analyte on immobilized antigen-Fc. The protocol:
as §1

The target in assay [5] is T5, recombinant biotinylated monomeric Fc fusion of murine Folate Receptor 1 (mu FolR1 ECD-AcTev-Fcknob-Avitag … (murine, UniProt P0DOX5 223-449 = IgG part, biotin on the C-terminal Avi tag)).
T5 construct: also called muFolR1-Fc; murine FolR1
The assay can be described thus: SPR Biacore, single injection on immobilized antigen-Fc. The protocol:
(§2) Binding of FolR1 binders as IgG or in the T-cell bispecific format to different recombinant folate receptors (human FolR1, 2 and 3, murine FolR1 and cynomolgus FolR1; all as Fc fusions) was assessed by surface plasmon resonance (SPR). All SPR experiments were performed on a Biacore T200 at 25° C. with HBS-EP as running buffer (0.01 M HEPES pH 7.4, 0.15 M NaCl, 3 mM EDTA, 0.005% Surfactant P20, Biacore, Freiburg/Germany).
(§3) First the anti-FolR1 IgGs were analyzed by single injections (Table 1) to characterize their crossreactivity (to human, murine and cyno FolR1) and specificity (to human FolR1, human FolR2, human FolR3). Recombinant biotinylated monomeric Fc fusions of human, cynomolgus and murine Folate Receptor 1 (FolR1-Fc) or human Folate Receptor 2 and 3 (FolR2-Fc, FolR3-Fc) were directly coupled on a SA chip using the standard coupling instruction (Biacore, Freiburg/Germany). The immobilization level was about 300-400 RU. The IgGs were injected for 60 seconds at a concentration of 500 nM.

The target of assay [6] is T3, recombinant biotinylated monomeric Fc …. The assay is described as above. The protocol:
as §2, §3

Assay [7] addresses T4, recombinant biotinylated monomeric Fc …. The description is as above. The protocol: as §2, §3

B1: 15A1 Fab (Fab, V domains shown)
VH: QVQLVQSGAEVKKPGASVKVSCKASGYTFTSYYMHWVRQAPGQGLEWMGIINPSGGSTSYAQKFQGRVTMTRDTSTSTVYMELSSLRSEDTAVYYCARNYYIGVVTFDYWGQGTLVTVSS
VL: QAVVTQEPSLTVSPGGTVTLTCGSSTGAVTTSNYANWVQEKPGQAFRGLIGGTNKRAPGTPARFSGSLLGGKAALTLSGAQPEDEAEYYCALWYSNLWVFGGGTKLTVL
notes: bacterial Fab
As a reminder, the Kd is the constant that tells how readily two partners part at equilibrium. For the molecule B1, the Kd in assay [1] came to 0.0309 µM; in assay [2], 0.0173 µM. In addition, the binding result in assay [3] and in assay [4] was “no binding” in each case.

B2: 16A3 Fab (Fab, V domains shown)
VH: QVQLVQSGAEVKKPGASVKVSCKASGYTFTSYYMHWVRQAPGQGLEWMGIINPSGGSTSYAQKFQGRVTMTRDTSTSTVYMELSSLRSEDTAVYYCARNYYAGVTPFDYWGQGTLVTVSS
VL: QAVVTQEPSLTVSPGGTVTLTCGSSTGAVTTSNYANWVQEKPGQAFRGLIGGTNKRAPGTPARFSGSLLGGKAALTLSGAQPEDEAEYYCALWYSNLWVFGGGTKLTVL
notes: bacterial Fab
Regarding B2, the results for the Kd in assay [1] and in assay [2] were 0.0217 µM and 0.018 µM, respectively. For the same molecule, the binding result in assay [3] and in assay [4] was “no binding” each time.

B3: 18D3 Fab (Fab, V domains shown)
VH: QVQLVQSGAEVKKPGASVKVSCKASGYTFTSYYMHWVRQAPGQGLEWMGIINPSGGSTSYAQKFQGRVTMTRDTSTSTVYMELSSLRSEDTAVYYCARNYYTGGSSAFDYWGQGTLVTVS
VL: QAVVTQEPSLTVSPGGTVTLTCGSSTGAVTTSNYANWVQEKPGQAFRGLIGGTNKRAPGTPARFSGSLLGGKAALTLSGAQPEDEAEYYCALWYSNLWVFGGGTKLTVL
notes: bacterial Fab
In the case of B3, the Kd in assay [1] was found to be 0.0936 µM; in assay [2], 0.0402 µM. Moreover, the binding result in assay [3] and in assay [4] was “no binding” in each case.

B4: 21G8 IgG (antibody, V domains shown)
VH: not shown
VL: QAVVTQEPSLTVSPGGTVTLTCGSSTGAVTTSNYANWVQEKPGQAFRGLIGGTNKRAPGTPARFSGSLLGGKAALTLSGAQPEDEAEYYCALWYSNLWVFGGGTKLTVL
notes: human IgG1
For the molecule B4, the binding result in assay [5] is “no binding (tested: 500 nM)”.

B5: 15H7 Fab (Fab, V domains shown)
VH: QVQLVQSGAEVKKPGASVKVSCKASGYTFTSYYMHWVRQAPGQGLEWMGIINPSGGSTSYAQKFQGRVTMTRDTSTSTVYMELSSLRSEDTAVYYCARNYYLFSTSFDYWGQGTLVTVSS
VL: QAVVTQEPSLTVSPGGTVTLTCGSSTGAVTTSNYANWVQEKPGQAFRGLIGGTNKRAPGTPARFSGSLLGGKAALTLSGAQPEDEAEYYCALWYSNLWVFGGGTKLTVL
notes: bacterial Fab
In the case of B5, the Kd in assay [2] stood at 0.0725 µM. The binding result in assay [3] and in assay [4] was “no binding” in each case.

B6: 15B6 IgG (antibody, V domains shown)
VH: QVQLVQSGAEVKKPGASVKVSCKASGYTFTSYYMHWVRQAPGQGLEWMGIINPSGGSTSYAQKFQGRVTMTRDTSTSTVYMELSSLRSEDTAVYYCARNYYIGIVPFDYWGQGTLVTVSS
VL: QAVVTQEPSLTVSPGGTVTLTCGSSTGAVTTSNYANWVQEKPGQAFRGLIGGTNKRAPGTPARFSGSLLGGKAALTLSGAQPEDEAEYYCALWYSNLWVFGGGTKLTVL
notes: human IgG1
Take B6: the binding result in assay [5], in assay [6] and in assay [7] was “no binding (tested: 500 nM)” each time.

B7: 16F12 IgG (antibody, V domains shown)
VH: QVQLVQSGAEVKKPGASVKVSCKASGYTFTSYYMHWVRQAPGQGLEWMGIINPSGGSTSYAQKFQGRVTMTRDTSTSTVYMELSSLRSEDTAVYYCARNFTVLRVPFDYWGQGTLVTVSS
VL: QAVVTQEPSLTVSPGGTVTLTCGSSTGAVTTSNYANWVQEKPGQAFRGLIGGTNKRAPGTPARFSGSLLGGKAALTLSGAQPEDEAEYYCALWYSNLWVFGGGTKLTVL
notes: human IgG1
As to B7, the binding result in assay [5], in assay [6] and in assay [7] was “no binding (tested: 500 nM)” each time.

B8: 20G6 Fab (Fab, V domains shown)
VH: QVQLVQSGAEVKKPGASVKVSCKASGYTFTSYYMHWVRQAPGQGLEWMGIINPSGGSTSYAQKFQGRVTMTRDTSTSTVYMELSSLRSEDTAVYYCARGEWIRYYHFDYWGQGTLVTVSS
VL: QAVVTQEPSLTVSPGGTVTLTCGSSTGAVTTSNYANWVQEKPGQAFRGLIGGTNKRAPGTPARFSGSLLGGKAALTLSGAQPEDEAEYYCALWYSNLWVFGGGTKLTVL
notes: bacterial Fab
Regarding B8, the binding result in assay [1], in assay [2], in assay [3] and in assay [4] was “no binding” in each case.

B9: 19E5 Fab (Fab, V domains shown)
VH: QVQLVQSGAEVKKPGASVKVSCKASGYTFTSYYMHWVRQAPGQGLEWMGIINPSGGSTSYAQKFQGRVTMTRDTSTSTVYMELSSLRSEDTAVYYCARGEWRRYTSFDYWGQGTLVTVSS
VL: QAVVTQEPSLTVSPGGTVTLTCGSSTGAVTTSNYANWVQEKPGQAFRGLIGGTNKRAPGTPARFSGSLLGGKAALTLSGAQPEDEAEYYCALWYSNLWVFGGGTKLTVL
notes: bacterial Fab
Take B9: the dissociation constant (Kd) in assay [2] amounted to 0.276 µM.

B10: 19H3 Fab (Fab, V domains shown)
VH: QVQLVQSGAEVKKPGASVKVSCKASGYTFTSYYMHWVRQAPGQGLEWMGIINPSGGSTSYAQKFQGRVTMTRDTSTSTVYMELSSLRSEDTAVYYCARTGWSRWGYMDYWGQGTLVTVSS
VL: QAVVTQEPSLTVSPGGTVTLTCGSSTGAVTTSNYANWVQEKPGQAFRGLIGGTNKRAPGTPARFSGSLLGGKAALTLSGAQPEDEAEYYCALWYSNLWVFGGGTKLTVL
notes: bacterial Fab
As for B10, the binding result in assay [1], in assay [2], in assay [3] and in assay [4] was “no binding” throughout.

B11: 21D1 Fab (Fab, V domains shown)
VH: QVQLVQSGAEVKKPGASVKVSCKASGYTFTSYYMHWVRQAPGQGLEWMGIINPSGGSTSYAQKFQGRVTMTRDTSTSTVYMELSSLRSEDTAVYYCARNYYVGVSPFDYWGQGTLVTVSS
VL: QAVVTQEPSLTVSPGGTVTLTCGSSTGAVTTSNYANWVQEKPGQAFRGLIGGTNKRAPGTPARFSGSLLGGKAALTLSGAQPEDEAEYYCALWYSNLWVFGGGTKLTVL
notes: bacterial Fab
Take B11: the results for the Kd in assay [1] and in assay [2] were 0.0626 µM and 0.0321 µM, respectively. Besides, the binding result in assay [3] and in assay [4] was “no binding” each time.

B12: 5D9 IgG (antibody, V domains shown)
VH: QVQLVQSGAEVKKPGASVKVSCKASGYTFTSYYMHWVRQAPGQGLEWMGIINPSGGSTSYAQKFQGRVTMTRDTSTSTVYMELSSLRSEDTAVYYCARSYIDMDYWGQGTLVTVSS
VL: EIVLTQSPGTLSLSPGERATLSCRASQSVSSSYLAWYQQKPGQAPRLLIYGASSRATGIPDRFSGSGSGTDFTLTISRLEPEDFAVYYCQQDNWSPTFGQGTKVEIK
notes: human IgG1
As for B12, the binding result in assay [5] is on record as “no binding (tested: 500 nM)”.

B13: 6B6 IgG (antibody, V domains shown)
VH: QVQLVQSGAEVKKPGASVKVSCKASGYTFTSYYMHWVRQAPGQGLEWMGIINPSGGSTSYAQKFQGRVTMTRDTSTSTVYMELSSLRSEDTAVYYCARSYVDMDYWGQGTLVTVSS
VL: EIVLTQSPGTLSLSPGERATLSCRASQSVSSSYLAWYQQKPGQAPRLLIYGASSRATGIPDRFSGSGSGTDFTLTISRLEPEDFAVYYCQQDIWSPTFGQGTKVEIK
notes: human IgG1
For B13, in assay [5], the binding result is given as “no binding (tested: 500 nM)”.

The values above are taken from patent US20220220224A1 (Hoffmann-La Roche, published 2022).
